Results on eight substances are retold here after publication PMC4317567.

The target of the assay is fTHP-15 fluorogenic triple-helical peptide substrate.

As for MT1-MMP ectodomain R330A (enzyme), the Km of triple-helical peptidase activity (hydrolysis of fTHP-15), 27 °C, pH 7.5 stood at 980 nM.

Take MT1-MMP ectodomain R345A (enzyme): the Km of triple-helical peptidase activity (hydrolysis of fTHP-15), 27 °C, pH 7.5 amounted to 1700 nM. In the case of MT1-MMP ectodomain N347A (enzyme), the Km of triple-helical peptidase activity (hydrolysis of fTHP-15), 27 °C, pH 7.5 was 790 nM.

In the case of MT1-MMP ectodomain R343A (enzyme), the Km of triple-helical peptidase activity (hydrolysis of fTHP-15), 27 °C, pH 7.5 was found to be 4300 nM. Regarding MT1-MMP ectodomain E392A (enzyme), the Km of triple-helical peptidase activity (hydrolysis of fTHP-15), 27 °C, pH 7.5 amounted to 1600 nM. The value for MT1-MMP ectodomain F360G (enzyme) was 1700 nM. The value for “MT1-MMP catalytic domain, wild type (enzyme)” was 8900 nM; that for “MT1-MMP soluble ectodomain, wild type (C127S-substituted) (enzyme)” was 820 nM.
